This note sets out measurements from US20210386875.

This data set deals with ^111In-labeled DTPA-pMMP9 peptide on non-radioactive 10 nm gold nanoparticles.

Sequence of MMP9 (chain, as listed by the source): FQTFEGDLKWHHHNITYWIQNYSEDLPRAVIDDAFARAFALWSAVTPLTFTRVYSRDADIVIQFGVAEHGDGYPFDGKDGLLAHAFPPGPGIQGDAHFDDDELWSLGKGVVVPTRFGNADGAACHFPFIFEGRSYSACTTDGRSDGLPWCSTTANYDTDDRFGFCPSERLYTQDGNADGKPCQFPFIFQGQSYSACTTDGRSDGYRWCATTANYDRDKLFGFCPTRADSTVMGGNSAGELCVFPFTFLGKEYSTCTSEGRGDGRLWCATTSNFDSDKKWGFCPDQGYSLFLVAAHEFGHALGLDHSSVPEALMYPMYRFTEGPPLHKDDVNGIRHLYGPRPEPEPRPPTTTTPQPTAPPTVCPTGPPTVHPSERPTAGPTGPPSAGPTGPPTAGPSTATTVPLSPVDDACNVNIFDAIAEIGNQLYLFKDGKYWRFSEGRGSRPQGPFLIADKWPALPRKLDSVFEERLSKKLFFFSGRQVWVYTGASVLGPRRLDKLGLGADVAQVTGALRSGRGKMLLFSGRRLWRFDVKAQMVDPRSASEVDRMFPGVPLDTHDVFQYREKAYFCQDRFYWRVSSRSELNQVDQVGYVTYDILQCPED

As for MMP9, the “percent of ^111In cleaved from the nanoparticle after 48 hours incubation with MMP9 (16% without MMP9)” value is given as 48% ^111In was cleaved from the nanoparticle compared to only 16% without MMP9.
